The target of the assay is T1, Hfq_(S65C)-Flag (P. aeruginosa, UniProt Q9HUM0 1-82, S65C).
T1 construct: also called Hfq S65C-Flag protomer of Hfq*; source: E. coli JW4130F'Δhfq(pKEHfqPae); not shown: FLAG, C-terminal, kept
The assay is described as follows: co-IP. The note with it: both partners purified.

These results are taken from PMC8266614, “Stabilization of Hfq-mediated translational repression by the co-repressor Crc in Pseudomonas aeruginosa” (Nucleic Acids Research, 2021).

B1: P. aeruginosa Hfq, wild type (natural protein)
chain: MSKGHSLQDPYLNTLRKERVPVSIYLVNGIKLQGQIESFDQFVILLKNTVSQMVYKHAISTVVPSRPVRLPSGDQPAEPGNA
notes: RNA chaperone Hfq of Pseudomonas aeruginosa, wild type, from plasmid pKEHfqPae; In the row with m4 the wild-type protomer inside the mixed hexamer is meant; also called Hfq wt; Pae Hfq; source: for Hfq* co-produced with Hfq_(S65C)-Flag in the same strain
With B1, the “stoichiometry N” value is 1 Hfq wt per Hfq_(S65C)-Flag.
